These results are taken from patent publication US20140105889A1 (published 2014).

Where a chain is given by its changes, count along the chain named. In names and notes the source's numbering stands.

For orientation: Kd means the equilibrium constant for the complex coming apart.

T1: human FcγRIIa type H (human, UniProt P12318 36-217)
T1 construct: also called FcgRIIaH; FcγRIIa(H)
T1 sequence: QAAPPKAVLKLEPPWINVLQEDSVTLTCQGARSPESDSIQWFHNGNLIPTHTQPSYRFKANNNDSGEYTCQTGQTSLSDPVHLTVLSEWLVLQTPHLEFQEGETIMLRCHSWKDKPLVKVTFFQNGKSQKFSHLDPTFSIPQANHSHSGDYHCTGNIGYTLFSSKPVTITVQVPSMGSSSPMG

T2: human FcγRIIb (human, UniProt P31994 43-217, limits assumed)
T2 construct: also called FcgRIIb; FcγIIB
T2 sequence: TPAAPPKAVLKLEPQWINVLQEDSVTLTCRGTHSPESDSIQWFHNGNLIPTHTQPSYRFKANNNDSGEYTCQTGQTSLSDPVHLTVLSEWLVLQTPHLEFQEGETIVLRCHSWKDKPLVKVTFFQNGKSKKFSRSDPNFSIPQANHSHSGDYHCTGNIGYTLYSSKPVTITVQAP

T3: human FcγRIIb (human, UniProt P31994 43-217)
T3 construct: also called FcγIIB
T3 sequence: T2 sequence

T4: human FcγRIIa(R) (human, UniProt P12318 36-217)
T4 construct: Analyte in solution on Biacore; also called FcγRIIa type R; FcgRIIaR
T4 chain: T1 sequence with H133R

B1: IL6R-BP190/IL6R-L (antibody, human IgG1)
heavy: QVQLQESGPGLVKPSETLSLTCAVSGHSISHDHAWSWVRQPPGEGLEWIGFISYSGITNYNPSLQGRVTISRDNSKNTLYLQMNSLRAEDTAVYYCARSLARTTAMDYWGEGTLVTVSSASTKGPSVFPLAPSSKSTSGGTAALGCLVKDYFPEPVTVSWNSGALTSGVHTFPAVLQSSGLYSLSSVVTVPSSSLGTQTYICNVNHKPSNTKVDKKVEPKSCDKTHTCPPCPAPELLGDDSVFLFPPKPKDTLMISRTPEVTCVVVDVSDEDGEVKFNWYVDGVEVHNAKTKPREEQYNSTYRVVSVLTVLHQDWLNGKEYKCKVSNKALPKPIEKTISKAKGQPREPQVYTLPPSRDELTKNQVSLTCLVKGFYPSDIAVEWESNGQPENNYKTTPPVLDSDGSFFLYSKLTVDKSRWQQGNVFSCSVMHEALHNHYTQESLSLSP
light: DIQMTQSPSSLSASVGDRVTITCRASQDISSYLNWYQQKPGKAPKLLIYYTSRLHSGVPSRFSGSGSGTDFTFTISSLQPEDIATYYCQQGNTLPYTFGQGTKVEIK
notes: Anti-human IL-6 receptor human IgG1 variant; copies: 2 + 2
B2: IL6R-BP198/IL6R-L (antibody, human IgG1)
heavy: B1 heavy with E235D, L236Y, D239G, K328A
light: B1 light
notes: as for B1
B3: IL6R-BP195/IL6R-L (antibody, human IgG1)
heavy: B1 heavy with E235D, L236Y, Y298D, K328A
light: B1 light
notes: as for B1
B4: IL6R-BP199/IL6R-L (antibody, human IgG1)
heavy: B1 heavy with E235D, D239G, D270H, G273P, K328D, K332R
light: B1 light
notes: Anti-human IL-6 receptor human IgG1 variant; uncertain; copies: 2 + 2
B5: IL6R-BP191/IL6R-L (antibody, human IgG1)
heavy: B1 heavy with E235D, D239G, K328A
light: B1 light
notes: as for B1
B6: IL6R-BP187/IL6R-L (antibody, human IgG1)
heavy: B1 heavy with L236Y, D239G, D270H, K328A
light: B1 light
notes: as for B1
B7: IL6R-BP197/IL6R-L (antibody, human IgG1)
heavy: B1 heavy with E235D, L236Y, Y298D, K328D
light: B1 light
notes: as for B1
B8: IL6R-BP186/IL6R-L (antibody, human IgG1)
heavy: B1 heavy with E235D, L236Y, D270H, Y298D, K328A
light: B1 light
notes: as for B1
B9: IL6R-BP188/IL6R-L (antibody, human IgG1)
heavy: B1 heavy with E235D
light: B1 light
notes: as for B1
B10: IL6R-BP183/IL6R-L (antibody, human IgG1)
heavy: B1 heavy with E235D, L236Y, D239G, D270H, K328A
light: B1 light
notes: as for B1
B11: IL6R-BP196/IL6R-L (antibody, human IgG1)
heavy: B1 heavy with L236Y, D239G, K328A
light: B1 light
notes: as for B1
B12: IL6R-BP198/IL6R-L (antibody, human IgG1)
heavy: B1 heavy with E235D, L236Y, D239G, K328A
light: B1 light
notes: The common L chain is IL6R-L; copies: 2 + 2
B13: IL6R-BP203/IL6R-L (antibody, human IgG1)
heavy: B1 heavy with D270H, K332R
light: B1 light
notes: as for B12
B14: IL6R-BP209/IL6R-L (antibody, human IgG1)
heavy: B1 heavy with K328A, K332R
light: B1 light
notes: as for B12
B15: IL6R-BP208/IL6R-L (antibody, human IgG1)
heavy: B1 heavy with E235D, K332R
light: B1 light
notes: as for B12
B16: IL6R-BP212/IL6R-L (antibody, human IgG1)
heavy: B1 heavy with E235D, D239G, Y298D, K332R
light: B1 light
notes: as for B12
B17: IL6R-BP199/IL6R-L (antibody)
heavy: B1 heavy with E235D, D239G, D270H, G273P, K328D, K332R
light: B1 light
notes: copies: 2 + 2
B18: IL6R-BP207/IL6R-L (antibody, human IgG1)
heavy: B1 heavy with E235D, D239G, D270H, G273P, K332R
light: B1 light
notes: as for B12
B19: IL6R-BP206/IL6R-L (antibody, human IgG1)
heavy: B1 heavy with E235D, D239G, D270H, K332R
light: B1 light
notes: as for B12
B20: GpH7-B3 variant P331G / GpL16-k0 (antibody, human IgG1)
heavy: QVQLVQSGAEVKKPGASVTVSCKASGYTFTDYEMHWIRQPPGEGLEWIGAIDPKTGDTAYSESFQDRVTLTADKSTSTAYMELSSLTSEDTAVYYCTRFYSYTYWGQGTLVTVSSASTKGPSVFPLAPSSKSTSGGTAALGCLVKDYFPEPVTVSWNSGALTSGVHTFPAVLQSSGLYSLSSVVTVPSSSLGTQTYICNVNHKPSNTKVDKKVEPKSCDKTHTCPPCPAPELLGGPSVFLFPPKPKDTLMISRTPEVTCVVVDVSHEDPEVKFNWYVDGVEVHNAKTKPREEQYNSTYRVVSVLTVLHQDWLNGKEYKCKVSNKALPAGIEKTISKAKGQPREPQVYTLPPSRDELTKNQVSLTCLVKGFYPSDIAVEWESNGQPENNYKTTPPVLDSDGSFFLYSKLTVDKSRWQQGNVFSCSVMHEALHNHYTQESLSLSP
light: DIVMTQSPLSLPVTPGEPASISCQASESLVHSNRNTYLHWYLQKPGQSPQLLIYKVSNRFSGVPDRFSGSGSGTDFTLKISRVEAEDVGVYYCSQNTHVPPTFGQGTKVEIE
notes: Anti-glypican-3 IgG1; constant region B3 = G1d with K439E

For the first assay, the target named is T5, human FcγRIIIa type V (allotype V158) (human, UniProt P08637 17-208, limits assumed).
T5 construct: the assay used allotype V158; also called FcγRIIIaV; FcγRIIIa(V)
T5 sequence (P08637 other isoform, or with tags, fused parts or gaps limits assumed): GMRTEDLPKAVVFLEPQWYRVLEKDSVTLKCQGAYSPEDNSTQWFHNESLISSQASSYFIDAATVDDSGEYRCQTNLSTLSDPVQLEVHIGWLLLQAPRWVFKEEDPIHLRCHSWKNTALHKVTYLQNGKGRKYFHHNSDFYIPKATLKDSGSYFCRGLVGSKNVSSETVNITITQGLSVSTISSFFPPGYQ
Put plainly: SPR (Biacore), antibody captured on the chip, FcγR as analyte.
For the molecule B1, binding was put at a Kd of 45 µM.

In turn, B2 registered a Kd of 44 µM.

B3 had a Kd of 31 µM.

Molecule B4 came in with a Kd of 61 µM. This Kd is about 2-fold higher than that of the molecule before.

The molecule B5 yielded a Kd of 49 µM.

In turn, B6 showed a Kd of 56 µM.

Take B7: the affinity, expressed as Kd, was 33 µM.

B8 returned a Kd of 49 µM.

B9 yielded a Kd of 68 µM. This Kd and that of the molecule before are within 1.5-fold of each other.

In turn, B10 displayed a Kd of 56 µM.

For B11, the dissociation constant (Kd) is 51 µM.

The next assay deals with T6, human FcγRIa (human, UniProt P12314 16-292, limits assumed).
T6 construct: also called FcgRIa; CD64
Kind of assay: SPR (Biacore); binding amount divided by that of control IL6R-BF648/IL6R-L, x100.
T6 sequence (P12314 16-292 limits assumed): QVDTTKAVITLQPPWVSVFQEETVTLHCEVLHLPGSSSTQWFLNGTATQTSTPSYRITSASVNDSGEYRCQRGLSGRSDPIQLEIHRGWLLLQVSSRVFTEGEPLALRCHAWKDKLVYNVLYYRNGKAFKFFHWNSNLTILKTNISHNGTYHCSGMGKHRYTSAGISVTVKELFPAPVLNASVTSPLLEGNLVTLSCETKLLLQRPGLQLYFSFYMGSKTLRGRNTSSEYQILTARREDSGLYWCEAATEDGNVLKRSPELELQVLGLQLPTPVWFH
Description: (§1) According to the following method, relative binding activities were calculated for the results of analyzing interactions with the respective FcγRs.
On to B12, for which the relative binding activity is 104 % of IL6R-BF648/IL6R-L.

With B13, the relative binding activity is 35 % of IL6R-BF648/IL6R-L.

Take B14: the relative binding activity is 68 % of IL6R-BF648/IL6R-L.

Turning to B15, the relative binding activity is 81 % of IL6R-BF648/IL6R-L.

On to B16, for which the relative binding activity is 117 % of IL6R-BF648/IL6R-L.

As to B17, the relative binding activity was 112 % of IL6R-BF648/IL6R-L.

As for B18, the relative binding activity was 74 % of IL6R-BF648/IL6R-L.

For the molecule B19, the relative binding activity is 101 % of IL6R-BF648/IL6R-L.

Another assay has as its target T1, human FcγRIIa type H. The description is as above.
Description: as §1
Consider B12, for which the relative binding activity was 188 % of IL6R-BF648/IL6R-L.

B13: the relative binding activity is 255 % of IL6R-BF648/IL6R-L.

Regarding B14, the relative binding activity was 267 % of IL6R-BF648/IL6R-L.

For B15, the relative binding activity is 310 % of IL6R-BF648/IL6R-L.

In the case of B16, the relative binding activity was 135 % of IL6R-BF648/IL6R-L.

Take B17: the relative binding activity was 116 % of IL6R-BF648/IL6R-L.

In the case of B18, the relative binding activity is 103 % of IL6R-BF648/IL6R-L.

In the case of B19, the relative binding activity was 123 % of IL6R-BF648/IL6R-L.

The target of another assay is T7, human FcγRIIIa type V (human, UniProt P08637 17-208, limits assumed).
T7 construct: The assay used allotype V158; also called FcgRIIIaV; FcγRIIIa(V)
T7 sequence (P08637 other isoform, or with tags, fused parts or gaps limits assumed): as the sequence (P08637 other isoform, or with tags, fused parts or gaps limits assumed) above
Described as above.
Description: as §1
B12: the relative binding activity was 157 % of IL6R-BF648/IL6R-L.

In the case of B13, the relative binding activity was 88 % of IL6R-BF648/IL6R-L.

Take B14: the relative binding activity is 153 % of IL6R-BF648/IL6R-L.

With B15, the relative binding activity is 118 % of IL6R-BF648/IL6R-L.

Consider B16, for which the relative binding activity was 122 % of IL6R-BF648/IL6R-L.

As to B17, the relative binding activity is 103 % of IL6R-BF648/IL6R-L.

With B18, the relative binding activity was 97 % of IL6R-BF648/IL6R-L.

Consider B19, for which the relative binding activity is 92 % of IL6R-BF648/IL6R-L.

For another assay, the target named is T2, human FcγRIIb. Described as above.
Description: as §1
With B12, the relative binding activity is 164 % of IL6R-BF648/IL6R-L.

For the molecule B13, the relative binding activity was 185 % of IL6R-BF648/IL6R-L.

As for B14, the relative binding activity was 186 % of IL6R-BF648/IL6R-L.

With B15, the relative binding activity is 188 % of IL6R-BF648/IL6R-L.

B16: the relative binding activity was 173 % of IL6R-BF648/IL6R-L.

Turning to B17, the relative binding activity was 144 % of IL6R-BF648/IL6R-L.

Regarding B18, the relative binding activity was 124 % of IL6R-BF648/IL6R-L.

As to B19, the relative binding activity was 168 % of IL6R-BF648/IL6R-L.

Another assay deals with T3, human FcγRIIb. Put plainly: SPR (Biacore); KD of parent IL6R-B3/IL6R-L for FcγRIIb divided by KD of the variant for FcγRIIb. (In SPR one partner is held on a chip, and binding of the other changes the refractive index at the surface.)
Excerpt: Furthermore, KD(IIaR)/KD(IIb) and KD(IIaH)/KD(IIb) in the table respectively represent the value obtained by dividing the KD value of each variant for FcγRIIaR by the KD value of each variant for FcγRIIb, and the value obtained by dividing the KD value of each variant for FcγRIIaH by the KD value of each variant for FcγRIIb.
As for B1, the “KD(IIb) of the parent polypeptide/KD(IIb) of the altered polypeptide” value (“KD(IIb)” below) was determined as 53.2.

B2: the “KD(IIb)” value was 15.7.

Take B3: the “KD(IIb)” value was found to be 82.

As for B4, the “KD(IIb)” value turned out to be 6.3.

In the case of B5, the “KD(IIb)” value turned out to be 21.2.

With B6, the “KD(IIb)” value is 1.7.

Turning to B7, the “KD(IIb)” value worked out at 53.7.

On to B8, for which the “KD(IIb)” value came to 50.7.

For B9, the “KD(IIb)” value was 87.6.

With B10, the “KD(IIb)” value was determined as 12.9.

As to B11, the “KD(IIb)” value stood at 13.9.

The target of a further assay is T8, human FcγRIa (human, UniProt P12314 16-292, limits assumed).
T8 construct: Analyte in solution on Biacore; also called FcgRIa; hFcgRIa
Kind of assay: SPR (Biacore), antibody captured on chip, FcγR as analyte, HBS-EP+, 25°C.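 Further: FcγR binding response divided by the amount of captured antibody, then expressed relative to the reference antibody ×100, with antibodies captured via immobilized Protein A, A/G, L or antigen peptides.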
T8 sequence (P12314 16-292 limits assumed): as the sequence (P12314 16-292 limits assumed) above
Description: (§2) Interaction between each modified antibody and Fcγ receptor prepared in the manner described above was analyzed using the Biacore T100 (GE Healthcare), Biacore T200 (GE Healthcare), Biacore A100 or Biacore 4000. HBS-EP+ (GE Healthcare) was used for the running buffer, and measurements were carried out at 25° C. The chips used were chips in which antigen peptides, Protein A (Thermo Scientific), Protein A/G (Thermo Scientific) or Protein L (ACTIGEN or BioVision) were immobilized on the Series S Sensor Chip CM5 (GE Healthcare) or Series S Sensor Chip CM4 (GE Healthcare) by amine coupling, or chips in which preliminarily biotinylated antigen peptides were allowed to interact and then immobilized on the Series S Sensor Chip SA (certified) (GE Healthcare). The target antibodies were captured on these sensor chips, Fcγ receptor diluted with the running buffer was allowed to interact, followed by measurement of the amount of bound antibody. The amounts bound were compared between antibodies. However, since the amount of Fcγ receptor bound depends on the amount of captured antibody, the values used for comparison were first corrected by dividing the amount of Fcγ receptor bound by the captured amount of each antibody. Through reaction with 10 mM glycine-HCl at pH 1.5, the sensor chips were regenerated by washing off antibody captured on the sensor chips and used repeatedly.
(§3) Binding strength was evaluated according to the following method based on the results of analyzing the interaction with each FcγR. […] That value was then further multiplied by 100, and the resulting value was used as an indicator of relative binding activity to each FcγR.
As for B20, the “relative binding activity (% of GpH7-B3/GpL16-k0)” value stood at 88%.

For a further assay, the target named is T4, human FcγRIIa(R). The assay is described as above.
Description: as §2, §3
On to B20, for which the “relative binding activity (% of GpH7-B3/GpL16-k0)” value was found to be 13%.
